Measured values as given in US20140179604A1 (U S A REPRESENTED BY THE DEPARTMENT OF VETERANS AFFAIRS, published 2014).
Non-standard residues stand in square brackets, D forms with d. *: point of attachment. Phe(F5) = N[C@@H](Cc1c(F)c(F)c(F)c(F)c1F)C(=O)O; Desaminotyrosyl = O=C(CCc1ccc(O)cc1)*; hArg = N=C(N)NCCCC[C@H](N)C(=O)O; Agmatine = N=C(N)NCCCCN*; Nle = CCCC[C@H](N)C(=O)O; Orn = NCCC[C@H](N)C(=O)O; Abu = CC[C@H](N)C(=O)O; GABA = NCCCC(=O)O

Legend:
[1] = target: T1, GHRH receptor (membrane receptors of human anterior pituitary cells) (human) (UniProt Q02643); assay: competition with [His1,125I-Tyr10,Nle27]hGHRH(1-32)NH2, human pituitary membranes
T1 sequence (looked up): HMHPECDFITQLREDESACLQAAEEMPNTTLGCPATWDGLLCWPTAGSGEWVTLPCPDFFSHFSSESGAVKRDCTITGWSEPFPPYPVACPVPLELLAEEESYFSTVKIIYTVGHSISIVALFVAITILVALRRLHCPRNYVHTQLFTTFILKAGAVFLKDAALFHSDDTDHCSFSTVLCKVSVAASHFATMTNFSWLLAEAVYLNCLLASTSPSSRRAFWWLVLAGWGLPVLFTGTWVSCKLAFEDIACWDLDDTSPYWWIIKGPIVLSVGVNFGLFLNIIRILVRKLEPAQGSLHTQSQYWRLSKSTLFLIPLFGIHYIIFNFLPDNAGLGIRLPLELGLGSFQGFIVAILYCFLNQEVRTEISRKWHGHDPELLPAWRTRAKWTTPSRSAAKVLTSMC

[2] = target: T2, GHRH receptor (membrane receptors of human anterior pituitary cells) (human, UniProt Q02643 23-423); assay: competition with 125I-[His1,Nle27]hGHRH(1-32)NH2, human pituitary membranes
T2 construct: whole, on cells; Native receptor in a membrane fraction of purchased normal human pituitaries, not intact cells; also called hGHRH receptor; human pituitary membrane homogenates
T2 sequence (looked up): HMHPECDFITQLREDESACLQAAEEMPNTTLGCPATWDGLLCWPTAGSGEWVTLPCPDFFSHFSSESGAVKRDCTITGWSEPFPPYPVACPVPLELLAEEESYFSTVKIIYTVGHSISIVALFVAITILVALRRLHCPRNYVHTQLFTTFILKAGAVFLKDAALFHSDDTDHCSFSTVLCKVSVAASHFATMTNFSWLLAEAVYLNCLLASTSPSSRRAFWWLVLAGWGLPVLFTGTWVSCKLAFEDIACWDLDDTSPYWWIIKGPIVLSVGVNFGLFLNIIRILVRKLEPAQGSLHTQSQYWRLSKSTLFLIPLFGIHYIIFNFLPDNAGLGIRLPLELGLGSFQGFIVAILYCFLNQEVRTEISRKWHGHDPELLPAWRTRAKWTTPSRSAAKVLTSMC

[3] = target: T2, GHRH receptor (membrane receptors of …); assay: competition with [His1,125I-Tyr10,Nle27]hGHRH(1-32)NH2, human pituitary membranes
From the text: Normal human pituitaries were purchased from the National Hormone and Peptide Program (A. F. Parlow, Los Angeles, County Harbor—UCLA Medical Center, Torrance, Calif.).

[4] = target: T2, GHRH receptor (membrane receptors of …); assay: competition with 125I-JV-1-42, human pituitary membranes
From the text: (§1) Normal human pituitaries were purchased from the National Hormone and Peptide Program (A. F. Parlow, Los Angeles, County Harbor-UCLA Medical Center, Torrance, Calif.).

[5] = target: T2, GHRH receptor (membrane receptors of …); assay: as above; remark: listed apart in the source
Procedure: as §1
The final binding affinities were expressed as IC₅₀ values and were calculated by using the LIGAND PC computerized curve-fitting program of Munson and Rodbard as modified by McPherson.

JI-34 (peptide)
IC50 [1]: 1.37 nM
Relative affinity (Binding potency) vs GHRH (GHRH(1-29) = 1) [1]: 4.32

JI-36 (peptide)
IC50 [1]: 1.82 nM
Relative affinity (Binding potency) vs GHRH (GHRH(1-29) = 1) [1]: 3.25

B1: JI-38 [Dat^1, Gln^8, Orn^12,21, Abu^15, Nle^27, Asp^28, Agm^29]hGHRH(1-29)NH2 (peptide)
peptide: [Desaminotyrosyl]ADAIFTQSYR[Orn]VL[Abu]QLSAR[Orn]LLQDI[Nle]D[Agmatine]
SMILES: CCCC[C@H](NC(=O)[C@@H](NC(=O)[C@H](CC(=O)O)NC(=O)[C@H](CCC(N)=O)NC(=O)[C@H](CC(C)C)NC(=O)[C@H](CC(C)C)NC(=O)[C@H](CCCN)NC(=O)[C@H](CCCNC(=N)N)NC(=O)[C@H](C)NC(=O)[C@H](CO)NC(=O)[C@H](CC(C)C)NC(=O)[C@H](CCC(N)=O)NC(=O)[C@H](CC)NC(=O)[C@H](CC(C)C)NC(=O)[C@@H](NC(=O)[C@H](CCCN)NC(=O)[C@H](CCCNC(=N)N)NC(=O)[C@H](Cc1ccc(O)cc1)NC(=O)[C@H](CO)NC(=O)[C@H](CCC(N)=O)NC(=O)[C@@H](NC(=O)[C@H](Cc1ccccc1)NC(=O)[C@@H](NC(=O)[C@H](C)NC(=O)[C@H](CC(=O)O)NC(=O)[C@H](C)NC(=O)CCc1ccc(O)cc1)[C@@H](C)CC)[C@@H](C)O)C(C)C)[C@@H](C)CC)C(=O)N[C@@H](CC(=O)O)C(=O)NCCCCNC(=N)N
notes: Non-coded residues replacing another residue are written X
IC50 [2]: 2.74 nM
Relative affinity (Binding potency) compared to JI-38 [2]: 1 JI-38 = 1
Relative affinity (Binding potency) compared to hGHRH(1-29) [2]: 2.79 hGHRH(1-29)NH2 = 1
IC50 [3]: 1.95 nM
Relative affinity (Binding potency) vs GHRH [3]: 3.03 GHRH(1-29) = 1
Relative affinity (Binding potency) vs JI-38 [3]: 1 JI-38 = 1
IC50 [4]: 4.35 nM
Relative affinity (Binding potency) vs JI-38 [4]: 1 JI-38 = 1
IC50 [5]: 1.71 nM
Relative affinity (Binding potency) vs GHRH [5]: 2.4 GHRH(1-29) = 1
Relative affinity (Binding potency) vs JI-38 [5]: 1 JI-38 = 1

B2: P-29702 [Dat^1, D-Ala^2, Orn^12, Abu^15, Orn^21, Nle^27, Gln-Gab^30]hGHRH(1-30)NH2 (peptide)
peptide: [Desaminotyrosyl][dA]DAIFTNSYR[Orn]VL[Abu]QLSAR[Orn]LLQDI[Nle]SRQ[GABA]-NH2
SMILES: CCCC[C@H](NC(=O)[C@@H](NC(=O)[C@H](CC(=O)O)NC(=O)[C@H](CCC(N)=O)NC(=O)[C@H](CC(C)C)NC(=O)[C@H](CC(C)C)NC(=O)[C@H](CCCN)NC(=O)[C@H](CCCNC(=N)N)NC(=O)[C@H](C)NC(=O)[C@H](CO)NC(=O)[C@H](CC(C)C)NC(=O)[C@H](CCC(N)=O)NC(=O)[C@H](CC)NC(=O)[C@H](CC(C)C)NC(=O)[C@@H](NC(=O)[C@H](CCCN)NC(=O)[C@H](CCCNC(=N)N)NC(=O)[C@H](Cc1ccc(O)cc1)NC(=O)[C@H](CO)NC(=O)[C@H](CC(N)=O)NC(=O)[C@@H](NC(=O)[C@H](Cc1ccccc1)NC(=O)[C@@H](NC(=O)[C@H](C)NC(=O)[C@H](CC(=O)O)NC(=O)[C@@H](C)NC(=O)CCc1ccc(O)cc1)[C@@H](C)CC)[C@@H](C)O)C(C)C)[C@@H](C)CC)C(=O)N[C@@H](CO)C(=O)N[C@@H](CCCNC(=N)N)C(=O)N[C@@H](CCC(N)=O)C(=O)NCCCC(N)=O
notes: also called MR-702; Peptide 29702
IC50 [2]: 3.3 nM
Relative affinity (Binding potency) compared to JI-38 [2]: 0.83 JI-38 = 1
Relative affinity (Binding potency) compared to hGHRH(1-29) [2]: 2.31 hGHRH(1-29)NH2 = 1
IC50 [4]: 0.86 nM
Relative affinity (Binding potency) vs JI-38 [4]: 5.06 JI-38 = 1
IC50 [5]: 0.05 nM
Relative affinity (Binding potency) vs GHRH [5]: 81.2 GHRH(1-29) = 1
Relative affinity (Binding potency) vs JI-38 [5]: 34.2 JI-38 = 1

B3: P-23256 [Dat^1, D-Ala^2, Ala^8, Orn^12, Abu^15, Orn^21, Nle^27, Asp^28, Har^30]hGHRH(1-30)NH2 (peptide)
peptide: [Desaminotyrosyl][dA]DAIFTASYR[Orn]VL[Abu]QLSAR[Orn]LLQDI[Nle]DR[hArg]-NH2
SMILES: CCCC[C@H](NC(=O)[C@@H](NC(=O)[C@H](CC(=O)O)NC(=O)[C@H](CCC(N)=O)NC(=O)[C@H](CC(C)C)NC(=O)[C@H](CC(C)C)NC(=O)[C@H](CCCN)NC(=O)[C@H](CCCNC(=N)N)NC(=O)[C@H](C)NC(=O)[C@H](CO)NC(=O)[C@H](CC(C)C)NC(=O)[C@H](CCC(N)=O)NC(=O)[C@H](CC)NC(=O)[C@H](CC(C)C)NC(=O)[C@@H](NC(=O)[C@H](CCCN)NC(=O)[C@H](CCCNC(=N)N)NC(=O)[C@H](Cc1ccc(O)cc1)NC(=O)[C@H](CO)NC(=O)[C@H](C)NC(=O)[C@@H](NC(=O)[C@H](Cc1ccccc1)NC(=O)[C@@H](NC(=O)[C@H](C)NC(=O)[C@H](CC(=O)O)NC(=O)[C@@H](C)NC(=O)CCc1ccc(O)cc1)[C@@H](C)CC)[C@@H](C)O)C(C)C)[C@@H](C)CC)C(=O)N[C@@H](CC(=O)O)C(=O)N[C@@H](CCCNC(=N)N)C(=O)N[C@@H](CCCCNC(=N)N)C(N)=O
notes: also called Peptide 23256
IC50 [3]: 0.04 nM
Relative affinity (Binding potency) vs GHRH [3]: 148 GHRH(1-29) = 1
Relative affinity (Binding potency) vs JI-38 [3]: 48.7 JI-38 = 1

B4: P-25502 [Dat^1, D-Ala^2, Fpa5^6, Orn^12, Abu^15, Orn^21, Nle^27, Gab^30]hGHRH(1-30)NH2 (peptide)
peptide: [Desaminotyrosyl][dA]DAI[Phe(F5)]TNSYR[Orn]VL[Abu]QLSAR[Orn]LLQDI[Nle]SR[GABA]-NH2
SMILES: CCCC[C@H](NC(=O)[C@@H](NC(=O)[C@H](CC(=O)O)NC(=O)[C@H](CCC(N)=O)NC(=O)[C@H](CC(C)C)NC(=O)[C@H](CC(C)C)NC(=O)[C@H](CCCN)NC(=O)[C@H](CCCNC(=N)N)NC(=O)[C@H](C)NC(=O)[C@H](CO)NC(=O)[C@H](CC(C)C)NC(=O)[C@H](CCC(N)=O)NC(=O)[C@H](CC)NC(=O)[C@H](CC(C)C)NC(=O)[C@@H](NC(=O)[C@H](CCCN)NC(=O)[C@H](CCCNC(=N)N)NC(=O)[C@H](Cc1ccc(O)cc1)NC(=O)[C@H](CO)NC(=O)[C@H](CC(N)=O)NC(=O)[C@@H](NC(=O)[C@H](Cc1c(F)c(F)c(F)c(F)c1F)NC(=O)[C@@H](NC(=O)[C@H](C)NC(=O)[C@H](CC(=O)O)NC(=O)[C@@H](C)NC(=O)CCc1ccc(O)cc1)[C@@H](C)CC)[C@@H](C)O)C(C)C)[C@@H](C)CC)C(=O)N[C@@H](CO)C(=O)N[C@@H](CCCNC(=N)N)C(=O)NCCCC(N)=O
notes: also called MR-502; Peptide 25502
IC50 [2]: 2.16 nM
Relative affinity (Binding potency) compared to JI-38 [2]: 1.27 JI-38 = 1
Relative affinity (Binding potency) compared to hGHRH(1-29) [2]: 3.54 hGHRH(1-29)NH2 = 1
IC50 [4]: 0.33 nM
Relative affinity (Binding potency) vs JI-38 [4]: 13.2 JI-38 = 1
IC50 [5]: 0.07 nM
Relative affinity (Binding potency) vs GHRH [5]: 58 GHRH(1-29) = 1
Relative affinity (Binding potency) vs JI-38 [5]: 24.4 JI-38 = 1

B5: P-20350 [Dat^1, D-Ala^2, Gln^8, Orn^12, Abu^15, Orn^21, Nle^27, Asp^28, Agm^29]hGHRH(1-29)NH2 (peptide)
peptide: [Desaminotyrosyl][dA]DAIFTQSYR[Orn]VL[Abu]QLSAR[Orn]LLQDI[Nle]D[Agmatine]
SMILES: CCCC[C@H](NC(=O)[C@@H](NC(=O)[C@H](CC(=O)O)NC(=O)[C@H](CCC(N)=O)NC(=O)[C@H](CC(C)C)NC(=O)[C@H](CC(C)C)NC(=O)[C@H](CCCN)NC(=O)[C@H](CCCNC(=N)N)NC(=O)[C@H](C)NC(=O)[C@H](CO)NC(=O)[C@H](CC(C)C)NC(=O)[C@H](CCC(N)=O)NC(=O)[C@H](CC)NC(=O)[C@H](CC(C)C)NC(=O)[C@@H](NC(=O)[C@H](CCCN)NC(=O)[C@H](CCCNC(=N)N)NC(=O)[C@H](Cc1ccc(O)cc1)NC(=O)[C@H](CO)NC(=O)[C@H](CCC(N)=O)NC(=O)[C@@H](NC(=O)[C@H](Cc1ccccc1)NC(=O)[C@@H](NC(=O)[C@H](C)NC(=O)[C@H](CC(=O)O)NC(=O)[C@@H](C)NC(=O)CCc1ccc(O)cc1)[C@@H](C)CC)[C@@H](C)O)C(C)C)[C@@H](C)CC)C(=O)N[C@@H](CC(=O)O)C(=O)NCCCCNC(=N)N
notes: also called Peptide 20350; MR-350
IC50 [4]: 0.52 nM
Relative affinity (Binding potency) vs JI-38 [4]: 8.37 JI-38 = 1
IC50 [5]: 0.04 nM
Relative affinity (Binding potency) vs GHRH [5]: 102 GHRH(1-29) = 1
Relative affinity (Binding potency) vs JI-38 [5]: 42.7 JI-38 = 1
